B1: Apolipophorin-3b, P10762 (parent)
chain: MNTLLAVLMLAVAAQARPDAAGHVNIAEAVQQLNHTIVNAAHELHETLGLPTPDEALNLLTEQANAFKTKIAEVTTSLKQEAEKHQGSVAEQLNRFARNLNNSIHDAATSAQPADQLNSLQSALTNVGHQWQTSQPRPSVAQEAWAPVQSALQEAAEKTKEAAANLQNSIQSAVQKPAN

Variants of: B1
Conditions: Locusta migratoria, pH 7.4, CD, Na2HPO4 KH2PO4 10 mM 2 mM, NaCl 127 mM, reversible: yes, structure 1LS4, whole UniProt chain shown; for ddG of mutation (higher = less stable) / denaturant midpoint (higher = more stable) / unfolding free energy: 25 °C, GdnHCl; for Tm / change of melting temperature, mutant - wild type (higher = more stable): Thermal

MNTLLAVLMLAVAAQARPDAAGHVNIAEAVQQKNHTIVNAAHELHETLGLPTPDEALNLLTEQANAFKTKIAEVTTSLKQEAEKHQGSVAEQLNRFARNLNNSIHDAATSAQPADQLNSLQSALTNVGHQWQTSQPRPSVAQEAWAPVQSALQEAAEKTKEAAANLQNSIQSAVQKPAN [L33K]
ddG of mutation (higher = less stable): 1.36 kcal/mol
denaturant midpoint (higher = more stable): 0.2 M
unfolding free energy: 0.69 kcal/mol
Tm: 37 °C
change of melting temperature, mutant - wild type (higher = more stable): -16 °C

MNTLLAVLMLAVAAQARPDAAGHVNIAEAVQQLNHTIVNAAHELHEALGLPTPDEALNLLTEQANAFKTKIAEVTTSLKQEAEKHQGSVAEQLNRFARNLNNSIHDAATSAQPADQLNSLQSALTNVGHQWQTSQPRPSVAQEAWAPVQSALQEAAEKAKEAAANLQNSIQSAVQKPAN [T47A T159A]
ddG of mutation (higher = less stable): 1.06 kcal/mol
denaturant midpoint (higher = more stable): 0.37 M
unfolding free energy: 0.99 kcal/mol

MNTLLAVLMLAVAAQARPDAAGHVNIAEAVQQLNHTIVNAAHELHETLGLPTPDEALNLLTEQANAFKTKIAEVTTSLKQEAEKHQGSVAEQLNRFARNLNNSIHDAATSAQPADQLNSLQSALTNVGHQWQTSQPRPSVAQEAWAPVQSALQEKAEKTKEAAANLQNSIQSAVQKPAN [A155K]
ddG of mutation (higher = less stable): 1.69 kcal/mol
denaturant midpoint (higher = more stable): 0.16 M
unfolding free energy: 0.36 kcal/mol
Tm: 38 °C
change of melting temperature, mutant - wild type (higher = more stable): -15 °C

MNTLLAVLMLAVAAQARPDAAGHVNIAEAVQQLNHTIVNAAHELHEALGLPTPDEALNLLTEQANAFKTKIAEVTTSLKQEAEKHQGSVAEQLNRFARNLNNSIHDAATSAQPADQLNSLQSALTNVGHQWQTSQPRPSVAQEAWAPVQSALQEAAEKTKEAAANLQNSIQSAVQKPAN [T47A]
ddG of mutation (higher = less stable): -0.6 kcal/mol
denaturant midpoint (higher = more stable): 0.62 M
unfolding free energy: 2.65 kcal/mol
Tm: 57 °C
change of melting temperature, mutant - wild type (higher = more stable): 4 °C

MNTLLAVLMLAVAAQARPDAAGHVNIAEAVQQLNHTIVNAAHELHETLGLPTPDEALNLLTEQANAFKTKIAEVTTSLKQEAEKHQGSVAEQLNRFARNLNNSIHDAATSAQPADQLNSLQSALTNVGHQWQTSQPRPSVAQEAWAPVQSALQEAAEKAKEAAANLQNSIQSAVQKPAN [T159A]
ddG of mutation (higher = less stable): 1.32 kcal/mol
denaturant midpoint (higher = more stable): 0.28 M
unfolding free energy: 0.73 kcal/mol
Tm: 44 °C
change of melting temperature, mutant - wild type (higher = more stable): -9 °C

From FireProtDB (doi:10.1021/bi050502v)
